Columns and labels:
[1] = target: GST-NUT8 wild type (396-470) (UniProt Q86Y26); experiment: BLI; GST-NUT8 wild type or mutants loaded on Anti-GST biosensors, TAZ2 (1723-1836) as analyte; 25 °C; 1x PBS, 0.1% BSA, 0.02% Tween 20; steady-state analysis
[2] = target: T1, p300 TAZ2 domain (1723-1836), Q09472; experiment: BLI; details: chain shown with the change, read off a plot
T1 chain: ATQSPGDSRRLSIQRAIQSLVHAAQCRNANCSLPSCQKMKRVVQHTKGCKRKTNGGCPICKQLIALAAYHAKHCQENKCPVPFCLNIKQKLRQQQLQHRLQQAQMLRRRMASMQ

[3] = target: T2, NUT-F1c (347-588), tag cleaved (UniProt Q86Y26 347-588); experiment: SEC; complex run on HiLoad Superdex 200, Superdex 200 Increase 10/300 GL or Superdex 75 Increase 10/300 GL; SDS-PAGE of the peak fractions; details: both partners purified
T2 construct: not shown: His6-GST (pETM-30) or His6 (pETM11), N-terminal, cleaved

NUT4 (347-480), Q86Y26 = target: T3, NUT4 (347-480), Q86Y26; experiment: SEC-MALS; Superdex 75 Increase 10/300 GL, 20 mM HEPES pH 7.0, 300 mM NaCl, 5 µM ZnSO4, 0.5 mM TCEP; 50 µl at 2 mg/ml injected
T3 chain: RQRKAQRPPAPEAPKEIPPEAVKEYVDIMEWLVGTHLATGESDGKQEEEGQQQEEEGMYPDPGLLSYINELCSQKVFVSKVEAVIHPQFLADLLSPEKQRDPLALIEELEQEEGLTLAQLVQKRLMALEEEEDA

“p300 TAZ2 domain (1723-1836) (from UniProt Q09472 1723-1836) (domain or fragment)” gave a Kd [1] of 960 nM.

B1: GST-NUT8 wild type L410A; L411A; Y413A; L417A; C418A; F423A; V424A; V427A; V430A; I431A; F435A; L436A; L439A; L440A; D447A; L449A; A450G; L451A; E453A; E454A; … (protein)
chain: GQQQEEEGMYPDPGAASAINEAASQKVAASKAEAAAHPQAAADAASPEKQRAPAGAIAAAAQAAGAALAQLVQKRLMALEEEEDAE
With B1 the response ([2]; TAZ2 10 µM, parent: est. 0.22) was 0.085 nm.

B2: p300 CH3 domain (1660-1815) (domain or fragment, UniProt Q09472 1660-1815, looked up)
chain: TQSQDRFVYTCNECKHHVETRWHCTVCEDYDLCITCYNTKNHDHKMEKLGLGLDDESNNQQAAATQSPGDSRRLSIQRCIQSLVHACQCRNANCSLPSCQKMKRVVQHTKGCKRKTNGGCPICKQLIALCCYHAKHCQENKCPVPFCLNIKQKLRQ
notes: p300 CH3 domain, residues 1660-1815, in pGEX-5x1 with a TEV-cleavable GST tag
B2: binds [3].

B3: GST-NUT8 wild type D407K; L410A; Y413K; C418G; F423A; V424G; E428S; V430G; P433G; F435S; L439G; L440S; D447K; A450G; L451S; E454K; L455S; E458K; E459S; L461G; … (protein)
chain: GQQQEEEGMYPKPGALSKINELGSQKVAGSKVSAGIHGQSLADGSSPEKQRKPLGSIEKSEQKSGGSLAQLVQKRLMALEEEEDAE
Molecule B3 has a response ([2]; TAZ2 10 µM, parent: est. 0.22) of 0.03 nm.

B4: GST-NUT8 wild type D447A; L449A; A450G; L451A; E453A; E454A; L455A; E456A; E458A; E459A; L461A; T462A (protein)
chain: GQQQEEEGMYPDPGLLSYINELCSQKVFVSKVEAVIHPQFLADLLSPEKQRAPAGAIAAAAQAAGAALAQLVQKRLMALEEEEDAE
B4 gave a response ([2]; TAZ2 2.5 µM, parent: est. 0.18) of 0.07 nm, a response ([2]; TAZ2 5 µM, parent: est. 0.21) of 0.11 nm and a response ([2]; TAZ2 10 µM, parent: est. 0.22) of 0.13 nm.

B5: GST-NUT8 wild type L436A; L439A; L440A; D447A; L449A; A450G; L451A; E453A; E454A; L455A; E456A; E458A; E459A; L461A; T462A (protein)
chain: GQQQEEEGMYPDPGLLSYINELCSQKVFVSKVEAVIHPQFAADAASPEKQRAPAGAIAAAAQAAGAALAQLVQKRLMALEEEEDAE
Work on B5 yielded a response ([2]; TAZ2 2.5 µM, parent: est. 0.18) of 0.075 nm, a response ([2]; TAZ2 5 µM, parent: est. 0.21) of 0.14 nm and a response ([2]; TAZ2 10 µM, parent: est. 0.22) of 0.2 nm.

B6: p300 TAZ2 domain (construct limits not told for the experiment) (domain or fragment)
chain: ATQSPGDSRRLSIQRAIQSLVHAAQCRNANCSLPSCQKMKRVVQHTKGCKRKTNGGCPICKQLIALAAYHAKHCQENKCPVPFCLNIKQKLRQQQLQHRLQQAQMLRRRMASMQ
modifications: not checked
Molecule B6 has a stoichiometry N (NUT4 (347-480), Q86Y26) of 1.

Source: PMC9755262 (Nature Communications, 2022)
